In article PMC3315527:

Target: chaperone receptors within native chloroplast membranes (dynamic TIRE)
Assay: total internal reflection ellipsometry (TIRE); dynamic: pea chloroplast membranes on Cr/Au slides; time course of Δ at 700 nm over 15 min at chaperone concentrations from 1 to 10 µg/ml in 100 mM Tris-HCl pH 8.0; 1/τ against concentration fitted to a line, KA = ka/kd

Sequence of Hsp70-1 (At5g02500), full length (P22953 whole entry): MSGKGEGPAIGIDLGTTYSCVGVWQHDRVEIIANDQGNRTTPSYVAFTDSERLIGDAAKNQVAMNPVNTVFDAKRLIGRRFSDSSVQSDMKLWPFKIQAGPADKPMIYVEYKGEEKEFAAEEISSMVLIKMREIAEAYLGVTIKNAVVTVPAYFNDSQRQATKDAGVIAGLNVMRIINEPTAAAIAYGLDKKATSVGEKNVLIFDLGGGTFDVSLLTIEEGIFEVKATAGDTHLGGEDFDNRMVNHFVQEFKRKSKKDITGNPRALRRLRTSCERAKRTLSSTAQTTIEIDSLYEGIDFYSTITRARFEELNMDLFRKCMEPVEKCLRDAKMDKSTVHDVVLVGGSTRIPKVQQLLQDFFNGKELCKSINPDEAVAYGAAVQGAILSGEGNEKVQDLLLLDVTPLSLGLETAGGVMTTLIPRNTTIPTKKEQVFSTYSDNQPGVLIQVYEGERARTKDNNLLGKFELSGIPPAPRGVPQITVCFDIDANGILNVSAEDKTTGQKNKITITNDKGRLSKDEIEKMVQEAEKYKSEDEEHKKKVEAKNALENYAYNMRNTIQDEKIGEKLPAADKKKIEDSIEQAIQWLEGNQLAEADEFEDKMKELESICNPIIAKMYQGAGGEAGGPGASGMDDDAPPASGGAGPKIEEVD
Sequence of Hsp90-2 (At5g56030), full length (P55737 whole entry): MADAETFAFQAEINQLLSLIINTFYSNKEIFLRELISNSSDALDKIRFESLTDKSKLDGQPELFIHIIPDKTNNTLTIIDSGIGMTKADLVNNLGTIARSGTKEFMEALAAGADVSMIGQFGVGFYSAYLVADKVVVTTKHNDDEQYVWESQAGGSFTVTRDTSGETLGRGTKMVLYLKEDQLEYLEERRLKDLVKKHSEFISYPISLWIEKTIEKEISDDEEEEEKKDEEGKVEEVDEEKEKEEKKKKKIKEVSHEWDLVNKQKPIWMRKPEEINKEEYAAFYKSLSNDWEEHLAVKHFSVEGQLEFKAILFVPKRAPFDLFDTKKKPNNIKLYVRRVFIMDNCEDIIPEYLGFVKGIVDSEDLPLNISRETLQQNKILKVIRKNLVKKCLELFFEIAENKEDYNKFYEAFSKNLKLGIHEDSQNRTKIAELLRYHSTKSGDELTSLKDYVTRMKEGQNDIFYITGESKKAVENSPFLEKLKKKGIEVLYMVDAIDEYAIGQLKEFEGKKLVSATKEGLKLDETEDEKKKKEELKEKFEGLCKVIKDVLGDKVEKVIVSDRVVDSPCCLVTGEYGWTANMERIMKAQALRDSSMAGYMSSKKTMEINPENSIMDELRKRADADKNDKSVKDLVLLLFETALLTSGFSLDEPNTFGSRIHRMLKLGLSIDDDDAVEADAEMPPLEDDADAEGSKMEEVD

Row | Ka [M⁻¹] | Substance
1 | 9.15e+06 | Hsp70-1 (At5g02500), full length (from UniProt P22953 1-651) (natural protein)
2 | 8.74e+06 | Hsp90-2 (At5g56030), full length (from UniProt P55737 1-699) (natural protein)
